The target of one assay is T1, Human pro-MMP-2 (human, UniProt P08253 30-660).
T1 construct: Zymogen with pro-domain; also called MMP-2 zymogen
T1 sequence (looked up): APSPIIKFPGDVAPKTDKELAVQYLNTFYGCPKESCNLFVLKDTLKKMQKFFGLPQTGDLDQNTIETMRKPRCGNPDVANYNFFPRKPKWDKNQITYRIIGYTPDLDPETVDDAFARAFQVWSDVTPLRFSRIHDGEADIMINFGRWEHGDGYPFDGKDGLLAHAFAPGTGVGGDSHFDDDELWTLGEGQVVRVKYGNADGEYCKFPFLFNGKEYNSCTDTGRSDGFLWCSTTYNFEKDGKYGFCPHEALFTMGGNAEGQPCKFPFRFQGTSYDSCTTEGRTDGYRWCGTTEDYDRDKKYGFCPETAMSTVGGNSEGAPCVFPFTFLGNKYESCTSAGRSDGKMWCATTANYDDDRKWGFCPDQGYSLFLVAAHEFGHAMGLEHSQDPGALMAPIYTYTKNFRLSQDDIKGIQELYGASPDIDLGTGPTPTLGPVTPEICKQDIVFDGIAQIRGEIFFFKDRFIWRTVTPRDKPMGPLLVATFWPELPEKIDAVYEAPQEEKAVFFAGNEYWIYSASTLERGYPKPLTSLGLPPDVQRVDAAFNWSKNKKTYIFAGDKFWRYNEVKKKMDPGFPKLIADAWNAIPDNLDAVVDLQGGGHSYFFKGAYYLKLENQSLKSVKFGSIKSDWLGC
Briefly: pull-down with SDS3 on protein A beads, SDS-PAGE, Coomassie staining. On the procedure:
(§1) FIGS. 7A-B are photographs illustrating that SDS3 recognizes only the active conformation of MMP-2 and -9. FIG. 7A: Western blot analyses of MMP-9 using commercial anti-MMP-9 antibody. Lane 1—SDS3 captured from mice ascetic fluid by protein G beads; lane 2—As control non-related IgG similarly captured; lane 3—ProMMP-9, as a molecular weight marker to discern the active species. FIG. 7B: SDS3 mAb immobilized to protein A beads was analyzed for its ability to pull down purified ProMMP-9 (top), ProMMP-2 (middle) or active MMP-2 (bottom). Immunoprecipitates (lane 1) and unbound fraction (lane 2) were separated on SDS/PAGE gel, and visualized by Coomassie-staining. As a negative control for non-specific adsorption, enzyme alone was incubated with protein A Sepharose beads (lane 3).
(§2) After washing unbound antibody, purified enzyme ProMMP-9, Pro-MMP-2, or active MMP-2 fragment (catalytic and fibronectin domain), was added following 2 hour incubation under continuous stirring at room temperature. Bead-bound immune complex was collected by centrifugation and washed three times with PBS. Bound proteins were eluted with SDS sample buffer, fractionated by SDS-PAGE, and detected by Coomassie blue staining. As negative control for non specific adsorption enzyme was incubated with protein A Sepharose beads.

In a further assay the target is T2, Human Pro-MMP-9 (human, UniProt P14780 20-707).
T2 construct: Zymogen with pro-domain; also called MMP-9 zymogen
T2 sequence (P14780 20-707): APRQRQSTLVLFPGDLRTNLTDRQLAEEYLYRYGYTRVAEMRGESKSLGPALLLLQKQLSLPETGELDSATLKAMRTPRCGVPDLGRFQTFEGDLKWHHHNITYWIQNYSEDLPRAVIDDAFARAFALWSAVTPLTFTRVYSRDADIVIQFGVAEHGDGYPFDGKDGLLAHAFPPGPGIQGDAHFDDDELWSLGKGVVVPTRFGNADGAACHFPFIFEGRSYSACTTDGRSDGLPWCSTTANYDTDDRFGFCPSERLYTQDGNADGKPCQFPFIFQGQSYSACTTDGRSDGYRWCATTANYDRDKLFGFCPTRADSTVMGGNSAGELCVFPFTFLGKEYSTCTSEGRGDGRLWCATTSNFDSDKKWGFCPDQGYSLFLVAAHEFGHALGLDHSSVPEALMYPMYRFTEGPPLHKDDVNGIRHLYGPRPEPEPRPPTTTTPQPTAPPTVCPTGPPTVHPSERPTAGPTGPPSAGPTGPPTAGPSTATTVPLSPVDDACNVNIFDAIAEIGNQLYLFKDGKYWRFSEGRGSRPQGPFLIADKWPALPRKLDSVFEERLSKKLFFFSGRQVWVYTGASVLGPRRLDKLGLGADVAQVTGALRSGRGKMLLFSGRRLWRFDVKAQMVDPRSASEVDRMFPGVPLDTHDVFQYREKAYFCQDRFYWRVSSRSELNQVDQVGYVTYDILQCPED
The assay is described as above. On the procedure: as §1, §2

The target of assay [1] is T3, MMP-9 catalytic fibronectin fragment (human or mouse (not told which)).
T3 construct: domain: catalytic fibronectin fragment; Immobilized on a streptavidin (SA) sensor chip for SPR; also called Biotinylated human or mouse MMP-9 catalytic fibronectin fragment; Biotin-labeled MMP-9
Kind of assay: SPR (BIAcore 3000), biotin-labeled MMP-9 on SA chip, antibody in flow. From the text: (§3) FIGS. 13A-B are graphs illustrating results of SPR analysis of SDS3/SDS4 binding to MMP-9. Biotinylated human or mouse MMP-9 catalytic fibronectin fragment was immobilized on streptavidin (SA) chip. Control-corrected sensorgrams corresponding to the interaction of SDS3(FIG. 13A) and SDS4 (FIG. 13B) with biosensor surface-immobilized MMP-9 are shown. Antibody concentrations are represented by different colors, with specific values indicated. The data were collected in duplicate, and representative SPR sensorgrams in the ligand concentration series are shown. The ka (1/Ms) and kd (1/s) values were determined by SPR analysis, and KD (M) was calculated from ka and kd (KD=kd/ka).RU,response units.
(§4) The affinity between SDS3/SDS4 and human and mouse MMP-9 catalytic fibronectin fragment was measured with a BIAcore 3000 instrument (BIACORE). Biotin-labeled MMP-9 was immobilized on a sensor chips SA by the biotin-streptavidin coupling method, according to the manufacturer's instructions. All measurements were carried out at 25° C. and with a flow rate of 20 μl/min for both the association and dissociation phases in TBS buffer (50 mM Tris, 100 mM NaCl, 5 mM CaCl₂, pH 7.5). The interaction was monitored as the change in the SPR response. The association and dissociation rate constants, kₐ and kd, were determined by analysis of the appropriate regions of the sensogram using the BIAevaluation 3.2 software package (Pharmacia). The apparent equilibrium dissociation constant KD was determined from the ratio of the two rate constants (kd/kₐ).

For assay [2], the target named is MMP-2 (as used in the enzymatic kinetic assay). Briefly: enzyme kinetics, fluorogenic peptide hydrolysis, fit to competitive inhibition. How it is done:
(§5) Similarly the enzymatic activity of TACE was measured by monitoring the degradation of fluorogenic peptide QF-45 (Mca-[…]dinitrophenyl)-NH2) (SEQ ID NO: 2). A range of different mAb concentrations (0.4-30 μM) were pre-incubated with 2 nM of active enzyme in 50 mM Tris buffer (pH 7.5 37° C.), 200 mM NaCl, 5 mM CaCl₂, and 0.05% Brij 35 for 40 minutes at 37° C. The enzymatic reaction was initiated by addition of 10 μM of the fluorogenic peptide. Fluorescence (as a measure of substrate degradation) was immediately recorded continuously for 30-50 minutes. Initial reaction rates were measured and inhibition constants were evaluated by fitting to equation of competitive inhibition (vi/vo=Km+[S]/(Km(1+I/Ki)+[S]) [I. H. Segel, Enzyme Kinetics (Wiley-Interscience Publication, 1993)], where vi is initial velocity in the presence of mAb, vo is the initial velocity in the absence of mAb inhibitor, S is substrate concentration Km is the Michaelis-Menten constant and I is mAb concentration.
(§6) The effect of SDS3 and SDS4 on MMPs' enzymatic activity was examined using to standard peptide hydrolysis assay based on conversion of fluorogenic peptide substrate [C. G. Knight, F. Willenbrock, G. Murphy, FEBS Lett 296, 263 (Jan. 27, 1992)] as well as native gelatin substrate. Initial reaction velocities were measured in the presence of several concentrations of metallobodies incubated with various MMPs and tumor necrosis factor-alpha converting enzyme (TACE).

Assay [3] deals with T4, active MMP-9 (as used in the enzymatic kinetic assay and the XAS studies). The assay is described as above. How it is done: as §5, §6
The target of assay [4] is MMP-2 (as used in the enzymatic kinetic assay). Kind of assay: cell-based or functional assay.
MMP-2 (as used in the enzymatic kinetic assay), sequence (P33434 110-467): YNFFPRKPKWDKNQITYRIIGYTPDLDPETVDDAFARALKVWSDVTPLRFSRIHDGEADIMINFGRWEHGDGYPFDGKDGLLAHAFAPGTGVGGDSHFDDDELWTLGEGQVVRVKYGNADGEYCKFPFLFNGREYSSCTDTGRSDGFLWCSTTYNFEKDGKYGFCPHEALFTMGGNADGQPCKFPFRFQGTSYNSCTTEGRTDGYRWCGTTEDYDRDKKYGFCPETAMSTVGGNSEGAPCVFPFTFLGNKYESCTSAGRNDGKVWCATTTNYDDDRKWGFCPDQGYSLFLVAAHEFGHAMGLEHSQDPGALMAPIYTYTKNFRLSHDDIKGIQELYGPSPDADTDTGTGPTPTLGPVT
For assay [5], the target named is T4, active MMP-9 (as used in the enzymatic …). Kind of assay: cell-based or functional assay.
The target of assay [6] is T5, native bovine serum albumin (bovine, UniProt P02769 25-607).
T5 construct: Unconjugated carrier protein used as the counter-screen in the hybridoma ELISA; also called native BSA; BSA
T5 sequence (P02769 25-607 limits assumed): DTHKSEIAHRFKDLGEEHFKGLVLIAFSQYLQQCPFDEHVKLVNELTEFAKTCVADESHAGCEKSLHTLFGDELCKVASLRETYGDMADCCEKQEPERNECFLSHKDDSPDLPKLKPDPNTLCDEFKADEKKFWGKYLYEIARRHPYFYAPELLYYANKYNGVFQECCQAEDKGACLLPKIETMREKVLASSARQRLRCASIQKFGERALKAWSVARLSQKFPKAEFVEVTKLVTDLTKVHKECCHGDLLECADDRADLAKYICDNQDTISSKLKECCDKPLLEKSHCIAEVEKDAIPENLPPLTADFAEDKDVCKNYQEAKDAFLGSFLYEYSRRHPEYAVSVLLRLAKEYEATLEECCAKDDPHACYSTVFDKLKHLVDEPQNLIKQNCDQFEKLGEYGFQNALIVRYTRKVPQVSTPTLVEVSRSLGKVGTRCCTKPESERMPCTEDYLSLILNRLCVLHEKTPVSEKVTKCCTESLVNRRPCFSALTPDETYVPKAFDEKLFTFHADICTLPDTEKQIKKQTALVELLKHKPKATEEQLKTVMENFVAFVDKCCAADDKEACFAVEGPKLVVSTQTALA
Briefly: ELISA screen of hybridoma supernatants on plate-absorbed antigen. On the procedure: Preparation of Anti-MMP Metallobodies Using Zn-Tripod-KLH as an Immunogen: Female BALB/c mice were immunized on day 1 with complete Freund adjuvant and 50 μg of Zinc-Tripod-KLH and boosted every two weeks with incomplete Freund adjuvant by emulsifying and intraperitoneal injection. Spleen cells from the immunized mice were fused with NSO murine myeloma cells and cultured in HAT (hypoxantine/aminopterin/thymidine) selection medium. The culture supernatants of the hybridoma were screened using an ELISA, employing pairs of wells in microtiter plates on which were absorbed MMP-9 catalytic domain and Zinc-Tripod-BSA as antigens (0.5 μg of MMP-9 or Zinc-Tripod-BSA conjugate per well). After incubation with 100 μl of the hybridoma supernatants, and with intervening washes with Tris-buffered saline, pH 7.5, containing 0.05% Tween 20 (TBS-Tween), the wells were incubated with a peroxidase-conjugated goat anti-mouse IgG, followed by a substrate solution containing 2′-azino-bis(3-ethylbenzthiazoline-6-sulfonic acid) diammonium salt. Hybridoma cells, corresponding to the supernatants that were positive on both MMP-9 and Zinc-Tripod—BSA and negative on native BSA, were then cloned by limited dilution. After repeated screenings, four clones showing the most distinctive recognition of both antigens were obtained and clone SDS3 was chosen for further characterization.
For orientation: In an ELISA, binding on a coated surface is turned into a signal by an enzyme label.

Assay [7] deals with T4, active MMP-9 (as used in the enzymatic …). Kind of assay: cell-based or functional assay. This is another data set of the same source.
For assay [8], the target named is T6, mouse MMP-9 catalytic domain (mouse, UniProt P41245 107-215; P41245 391-443, biotinylated (site not stated)).
T6 construct: range 107-215;range 391-443; also called Biotinylated mouse catalytic MMP-9; not shown: N-terminal His tag from the pET3a construct
T6 sequence (looked up): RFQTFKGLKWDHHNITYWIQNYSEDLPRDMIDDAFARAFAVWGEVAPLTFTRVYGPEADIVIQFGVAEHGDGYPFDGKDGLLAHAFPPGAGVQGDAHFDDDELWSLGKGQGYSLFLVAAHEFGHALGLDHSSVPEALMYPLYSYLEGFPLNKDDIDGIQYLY
Kind of assay: ELISA, biotinylated mouse catalytic MMP-9 on streptavidin plate, soluble antibody. How it is done: ELISA Binding Assay: Biotinylated mouse catalytic MMP-9 was coupled to streptavidin coated microtiter plate (Nunc) according to manufacture protocol. After the plates were coated, they were incubated with the SDS3/4 mAb for 2 hours at room temperature. The plates were washed, and bound Ab was detected with peroxidase-labeled goat anti-mouse IgG (Jackson) according to standard procedures. EC₅₀, or concentration of half-maximal binding was calculated from a four-parametric sigmoidal-curve fitting analysis.

Assay [9] concerns the target T3, MMP-9 catalytic fibronectin fragment. Briefly: SPR (BIAcore 3000), biotin-labeled MMP-9 on SA chip, antibody in flow; KD=kd/ka.
Text: as §3
as §4, with “All measurements were carried out at 25° C. and with a flow rate of 20 μl/min for both the association and dissociation phases in TBS buffer (50 mM Tris, 100 mM NaCl, 5 mM CaCl₂, pH 7.5).” left out

In assay [10] the target is T7, human MT1-MMP catalytic domain (human, UniProt P50281 114-290).
T7 construct: range 114-290; also called MMP-14; MMP-14 catalytic domain; not shown: N-terminal His tag from the pET3a construct
Kind of assay: enzyme kinetics, fluorogenic peptide hydrolysis, fit to competitive inhibition. How it is done:
as §5, §6

Assay [11] addresses T7, human MT1-MMP catalytic domain. Briefly: cell-based or functional assay.

B1: SDS3 (antibody, V domains shown)
VH: VQLQESGGGLVKPGGSLKLSCAASGFAFSTYDMSWIRQTPEKRLEWVATISSGGSYTYYPDSVKGRFTISKDNARNTLYLQMSSLRSGDTALYYCTRFRYDGWYFDVWGQG
VL: DVLITQTPLSLPVSLGDQASISCRSSQSIVHSNGNTFLEWYLQKPGQSPKLLIYKVSNRFSGVPDRFSGSGSGTDFTLKISRVEAEDLGVYYCFQASHVPPTFGGG
notes: Mouse hybridoma monoclonal antibody raised against Zn-Tripod-KLH; also called SDS3 mAb; SDS3 metallobody
As a reminder, the koff is the rate constant with which the complex falls apart. A higher koff goes with fast dissociation. As usually defined, the kon is the second-order rate constant of association. A high value points to faster complex formation. What is called Ki is a dissociation constant, usually derived from enzyme kinetics or from competition with a known ligand. Higher therefore signals weaker binding. A word on the EC50: it is the concentration needed to bring the measured effect to its halfway point. A word on the Kd: it is the constant that tells how readily two partners part at equilibrium. Low values mean higher affinity, high ones lower affinity. Consider B1, for which the binding result (with Human pro-MMP-2; with Human Pro-MMP-9; in assay [6]) was “no binding” throughout. In addition, the off-rate (koff) in [1] worked out at 0.00135 s⁻¹. Moreover, the association rate constant (kon) in [1] was determined as 6640 M⁻¹ s⁻¹. Also, the Ki in assay [2] and in assay [3] was 1000 nM each time. Moreover, the “IC50 of inhibition of enzymatic activity (fluorogenic peptide hydrolysis)” value in [4] is 1400 nM; in [5], 1000 nM. For the same molecule, the “IC50 (read off the curve)” value in assay [7] is about 3000 nM. This molecule yielded an EC50 in assay [8] of 200 nM. In [9], this molecule gave an equilibrium dissociation constant (Kd) of 200 nM.

B2: SDS4 (antibody, V domains shown)
VH: EVQLQQSGPELVKPGASVKISCKASGYTFTGYYMHWVKQSPEKSLEWIGEINPSTGGTTYNQKFTGKATLTVDKSSSTAYMQLKSLTSDDSAVYYCASYYRYDWFAYWGQGTLVTVSA
VL: DVLMTQTPLSLPVSLGDQASISCRSSQSLVHSNGNTYLHWYLQKPGQSPKLLIYKVSNRFSGVPDRFSGSGSGTDFTLKISRVEAEDLGVYFCSQSTHVPFTFGSGTKLELKR
notes: Mouse hybridoma monoclonal antibody raised against Zn-Tripod-KLH; also called SDS4 mAb; SDS4 metallobody
Regarding B2, in assay [1], the koff is 0.00166 s⁻¹. Moreover, the kon in [1] was 439000 M⁻¹ s⁻¹. The Ki in assay [2] was found to be 54 nM; in [10], 1400 nM; in assay [3], 54 nM. In addition, the figures for the “IC50 of inhibition of enzymatic activity (fluorogenic peptide hydrolysis)” value in assay [4], in [11] and in assay [5] were 56 nM, 1420 nM and 70 nM, respectively. The molecule further displayed a 50% effective concentration (EC50) in assay [8] of 15 nM. Moreover, binding in assay [9] was characterised by a dissociation constant (Kd) of 3.78 nM.

The values above are taken from US20130039922A1 (YEDA RESEARCH AND DEVELOPMENT, published 2013).
